Test results published in the supplement of paper PMC10567573.

B1: FEM1A (parent)
chain: NIVEYLIQEQPGQEQVAGGEAQPG
B2: HMOX1 (parent)
chain: YHIYVALEEEIERNKESPVFAPVY

Variants of: B1
Experiment: protein stability index of a GFP-peptide fusion (GPS, HEK-293T) (PSI 1-6); higher = more stable
Settings: c terminus: a fixed tail appended
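Note: lentivirally expressed fusions sorted by FACS into six bins by GFP to DsRed ratio, PSI derived from sequencing read proportions per bin multiplied by bin number.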

Variant	protein stability index
Q8E	4.7
Q8F	2.94
Q8G	4.26
Q8H	3.93
Q8I	3.18
Q8K	4.06
Q8L	4.39
Q8M	3.66
Q8N	4.42
Q8P	4.71
Q8R	3.11
Q8S	4.09
Q8T	4.88
Q8V	3.34
Q8W	3.33
Q8Y	3.36
E9A	2.91
E9C	3
E9D	4.49
E9F	2.79
E9G	3.71
E9H	2.95
E9I	2.3
E9K	3.71
E9L	2.27

Variant	protein stability index
E9M	3.35
E9N	3.38
E9P	3.71
E9Q	3.52
E9R	2.88
E9S	3.36
E9T	3.15
E9V	2.06
E9W	2.45
E9Y	2.42
Q10A	4.34
Q10C	3.83
Q10D	4.37
Q10E	4.62
Q10F	3.16
Q10H	3.88
Q10I	3.75
Q10K	4.3
Q10L	3.43
Q10M	3.21
Q10N	4.27
Q10P	4.54
Q10R	4.03
Q10S	4.53
Q10T	3.69

Variant	protein stability index
Q10V	3.22
Q10W	2
Q10Y	3.09
P11A	3.98
P11C	3.11
P11D	4.47
P11E	4.27
P11F	2.75
P11G	3.89
P11H	3.6
P11I	2.65
P11K	3.74
P11L	2.21
P11M	2.6
P11N	3.8
P11Q	3.69
P11R	3.42
P11S	3.96
P11T	3.88
P11V	3.28
P11W	2.13
P11Y	2.65
G12A	3.83
G12C	4.03
G12D	4.69

Variant	protein stability index
G12E	4.73
G12F	3.09
G12H	4.24
G12I	3.86
G12K	4.19
G12L	3.44
G12M	4.03
G12N	4.5
G12P	4.87
G12Q	4.61
G12R	2.94
G12S	4.65
G12T	3.87
G12V	3.95
G12W	2.89
G12Y	3.12
Q13A	4.02
Q13D	4.11
Q13E	4.79
Q13F	3.78
Q13G	4.18
Q13H	4.04
Q13I	3.35
Q13K	4.48
Q13L	3.27

Variant	protein stability index
Q13M	3.86
Q13N	4.42
Q13P	4.26
Q13R	3.79
Q13S	3.85
Q13T	3.94
Q13V	4.06
Q13W	3.18
Q13Y	3.72
E14A	4.06
E14C	3.38
E14D	4.39
E14F	2.62
E14G	3.84
E14H	3.48
E14I	3.25
E14K	3.85
E14L	3.06
E14M	3.34
E14N	3.54
E14P	3.73
E14Q	3.33
E14R	3.37
E14S	3.21
E14T	4.21

Variant	protein stability index
E14V	2.61
E14W	2.25
E14Y	2.69
Q15A	4.2
Q15C	4.19
Q15D	4.08
Q15E	4.79
Q15F	3.24
Q15G	4.78
Q15H	4.02
Q15I	4.08
Q15K	3.91
Q15L	3.53
Q15M	3.78
Q15N	4.56
Q15P	4.32
Q15R	3.78
Q15S	4.52
Q15T	3.17
Q15V	3.66
Q15W	3.22
Q15Y	3.67
V16A	4.52
V16C	4.02
V16D	4.16

Variant	protein stability index
V16E	4.35
V16F	3.03
V16G	4.6
V16H	4.36
V16I	3.86
V16K	4.29
V16L	3.94
V16M	4.68
V16N	3.87
V16P	4.29
V16Q	4.3
V16R	4.2
V16S	3.86
V16T	4.42
V16W	3.81
V16Y	4.05
A17C	3.37
A17D	4.97
A17E	4.6
A17F	3.59
A17G	4.71
A17H	4.38
A17I	3.87
A17K	4.19
A17L	3.33

Variant	protein stability index
A17M	3.96
A17N	5.16
A17P	4.24
A17Q	4.07
A17R	3.5
A17S	4.72
A17T	3.91
A17V	3.68
A17W	2.73
A17Y	3.68
G18A	4.2
G18C	3.8
G18D	5.01
G18E	4.9
G18F	2.94
G18H	4.47
G18I	3.85
G18K	3.75
G18L	3.54
G18M	4.31
G18N	4.16
G18P	4.3
G18Q	4.7
G18R	4.15
G18S	3.78

Variant	protein stability index
G18T	4.2
G18V	3.61
G18W	3.12
G18Y	3.36
G19A	4.24
G19C	4.06
G19D	4.75
G19E	5.05
G19F	3.31
G19H	4.04
G19I	3.23
G19K	4.22
G19L	3.6
G19M	3.72
G19N	4.43
G19P	4.16
G19Q	4.09
G19R	3.66
G19S	4.65
G19T	4.18
G19V	3.96
G19W	2.99
G19Y	3.47
E20A	3.89
E20C	3.68

Variant	protein stability index
E20D	4.59
E20F	3.46
E20G	4.38
E20H	4.1
E20I	3.53
E20K	4.25
E20L	3.54
E20M	3.13
E20N	3.73
E20P	3.79
E20Q	3.9
E20R	3.79
E20S	3.41
E20T	3.63
E20V	3.49
E20W	2.62
E20Y	2.34
A21C	4.09
A21D	4.53
A21E	4.76
A21F	4.41
A21G	3.86
A21H	3.77
A21I	3.91
A21K	4.28

Variant	protein stability index
A21L	3.95
A21M	4.16
A21N	4.7
A21P	4.27
A21Q	4.05
A21R	4.19
A21S	3.83
A21T	4.67
A21V	4.15
A21W	3.03
A21Y	4.03
Q22A	4.1
Q22C	4.58
Q22D	4.56
Q22E	4.82
Q22F	3.24
Q22G	4.33
Q22H	3.94
Q22I	3.66
Q22K	4.08
Q22L	4.16
Q22M	4.35
Q22N	4.22
Q22P	4.02
Q22R	3.94

Variant	protein stability index
Q22S	4.53
Q22T	3.91
Q22V	4.35
Q22W	2.51
Q22Y	2.78
P23A	4.93
P23C	3.98
P23D	4.66
P23E	4.74
P23F	3.66
P23G	4.19
P23H	3.98
P23I	3.94
P23K	4.29
P23L	4.24
P23M	4.33
P23N	4.25
P23Q	3.7
P23R	3.66
P23S	4.46
P23T	4.14
P23V	4.09
P23W	3.03
P23Y	3.59
G24A	3.67

Variant	protein stability index
G24C	4.17
G24D	4.62
G24E	4.03
G24F	3.76
G24H	4.28
G24I	4.03
G24K	3.94
G24L	4.05
G24M	3.86
G24N	4.29
G24P	4.12
G24Q	4.37
G24R	3.98
G24S	3.86
G24T	4.17
G24V	3.29
G24W	2.86
G24Y	3.51

Variants of: B2
Experiment: as above
Settings: c terminus: a fixed tail appended

Variant	protein stability index
Y1A	2.6
Y1C	1.89
Y1D	4.59
Y1E	4.37
Y1F	2.03
Y1G	2.26
Y1H	2.5
Y1I	3.18
Y1K	2.57
Y1L	1.64
Y1M	2.35
Y1N	3.93
Y1P	2.46
Y1Q	2.78
Y1R	2.73
Y1S	2.81
